Values quoted from earlier work, collected in PMC12086256.
pKd: −log10 of the molar value.

Target: VEGFR1 (Homo sapiens) (UniProt P17948)
Sequence of UniProt P17948 (P17948 27-758): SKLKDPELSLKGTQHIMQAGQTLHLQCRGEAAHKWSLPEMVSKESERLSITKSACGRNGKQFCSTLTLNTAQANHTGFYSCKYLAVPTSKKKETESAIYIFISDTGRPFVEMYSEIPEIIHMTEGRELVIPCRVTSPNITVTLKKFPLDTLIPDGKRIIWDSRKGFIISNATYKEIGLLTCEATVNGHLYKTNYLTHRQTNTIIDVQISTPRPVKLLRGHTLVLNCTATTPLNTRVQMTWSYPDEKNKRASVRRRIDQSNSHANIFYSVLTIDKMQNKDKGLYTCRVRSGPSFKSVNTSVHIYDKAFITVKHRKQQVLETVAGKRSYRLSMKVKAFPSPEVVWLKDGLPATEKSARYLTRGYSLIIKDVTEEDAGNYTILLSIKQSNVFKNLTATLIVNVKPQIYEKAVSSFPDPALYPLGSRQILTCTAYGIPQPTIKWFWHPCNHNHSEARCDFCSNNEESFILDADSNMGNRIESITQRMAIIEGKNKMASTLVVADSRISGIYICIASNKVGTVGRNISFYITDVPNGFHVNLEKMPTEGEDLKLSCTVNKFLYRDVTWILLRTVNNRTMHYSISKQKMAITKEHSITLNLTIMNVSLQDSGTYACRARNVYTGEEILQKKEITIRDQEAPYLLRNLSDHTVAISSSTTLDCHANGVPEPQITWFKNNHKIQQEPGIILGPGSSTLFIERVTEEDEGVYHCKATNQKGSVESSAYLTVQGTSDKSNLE

## VEGF-B167 (from UniProt P49765)
  pKd: 8.70
